The series concerns the molecule itself. The series is described as follows: western blot of BHK conditioned media, reducing against non-reducing conditions. How it is done: Following selection for stable cell transfectants, media isolated from pools was analyzed by western blot under reducing and non-reducing conditions using a Ztgfβ-9 antibody or an anti-EE epitope tag antibody. […] Under non-reducing conditions, Ztgfβ-9 protein migrated as at 49 kDa species. […] C-terminal EE tagged human Ztgfβ-9 expressed in BHK cells was also anti-EE affinity purified and its N-terminal sequence determined.
In general terms: A western blot detects proteins with antibodies after separation by electrophoresis.

The record followed here is patent US20040132136A1 (ZymoGenetics, published 2004).

B1: Human Ztgfβ-9 protein (ligand)
chain: AGAPRAGRRPARPRGCADRPEELLEQLYGRLAAGVLSAFHHTLQLGPREQARNASCPAGGRPADRRFRPPTNLRSVSPWAYRISYDPARYPRYLPEAYCLCRGCLTGLFGEEDVRFRSAPVYMPTVVLRRTPACAGGRSVYTEAYVTIPVGCTCVPEPEKDADSINSSIDKQGAKLLLGPNDAPAGP
notes: Expressed in BHK cells both with and without a C-terminal Glu-Glu tag; It migrated at 29 kDa reduced and 49 kDa non-reduced, read as a disulfide cross-linked homodimer
For the protein B1, the binding result was “binds”.
